# Assays:
# noto_human NOTO = noto_human NOTO (UniProt A8MTQ0)
# ptn21_human PTPN21 = ptn21_human PTPN21 (UniProt Q16825)
# leng8_human LENG8 = leng8_human LENG8 (UniProt Q96PV6)
# tri27_human TRIM27 = tri27_human TRIM27 (UniProt P14373)
# trib3_human TRIB3 = trib3_human TRIB3 (UniProt Q96RU7)
# vp37b_human VPS37B = vp37b_human VPS37B (UniProt Q9H9H4)
# pihd2_human PIH1D2 = pihd2_human PIH1D2 (UniProt Q8WWB5)
# magd1_human MAGED1 = magd1_human MAGED1 (UniProt Q9Y5V3)
# hspb7_human HSPB7 = hspb7_human HSPB7 (UniProt Q9UBY9)
# arrd3_human ARRDC3 = arrd3_human ARRDC3 (UniProt Q96B67)
# prdm6_human PRDM6 = prdm6_human PRDM6 (UniProt Q9NQX0)
# rm38_human MRPL38 = rm38_human MRPL38 (UniProt Q96DV4)
# pa2gx_human PLA2G10 = pa2gx_human PLA2G10 (UniProt O15496)
# pdli7_human PDLIM7 = pdli7_human PDLIM7 (UniProt Q9NR12)
# wbp2_human WBP2 = wbp2_human WBP2 (UniProt Q969T9)
# fx4l1_human FOXD4L1 = fx4l1_human FOXD4L1 (UniProt Q9NU39)
# prr34_human PRR34 = prr34_human PRR34 (UniProt Q9NV39)
# cytm1_human CYSTM1 = cytm1_human CYSTM1 (UniProt Q9H1C7)
# hspb8_human HSPB8 = hspb8_human HSPB8 (UniProt Q9UJY1)
# mdfi_human MDFI = mdfi_human MDFI (UniProt Q99750)
# dazp2_human DAZAP2 = dazp2_human DAZAP2 (UniProt Q15038)
# dtx3_human DTX3 = dtx3_human DTX3 (UniProt Q8N9I9)
# ctds1_human CTDSP1 = ctds1_human CTDSP1 (UniProt Q9GZU7)
# tm174_human TMEM174 = tm174_human TMEM174 (UniProt Q8WUU8)
# egr4_human EGR4 = egr4_human EGR4 (UniProt Q05215)
# coha1_human COL17A1 = coha1_human COL17A1 (UniProt Q9UMD9)
# ppip1_human PSTPIP1 = ppip1_human PSTPIP1 (UniProt O43586)
# msd4_human MSANTD4 = msd4_human MSANTD4 (UniProt Q8NCY6)
# zn639_human ZNF639 = zn639_human ZNF639 (UniProt Q9UID6)
# klh12_human KLHL12 = klh12_human KLHL12 (UniProt Q53G59)
# snx2_human SNX2 = snx2_human SNX2 (UniProt O60749)
# sp4_human SP4 = sp4_human SP4 (UniProt Q02446)
# fads6_human FADS6 = fads6_human FADS6 (UniProt Q8N9I5)
# pnma5_human PNMA5 = pnma5_human PNMA5 (UniProt Q96PV4)
# pick1_human PICK1 = pick1_human PICK1 (UniProt Q9NRD5)
# sng3_human SYNGR3 = sng3_human SYNGR3 (UniProt O43761)
# xrcc4_human XRCC4 = xrcc4_human XRCC4 (UniProt Q13426)
# tnip1_human TNIP1 = tnip1_human TNIP1 (UniProt Q15025)
# rprm_human RPRM = rprm_human RPRM (UniProt Q9NS64)
# flowr_human CACFD1 = flowr_human CACFD1 (UniProt Q9UGQ2)
# crcm_human MCC = crcm_human MCC (UniProt P23508)
# tri37_human TRIM37 = tri37_human TRIM37 (UniProt O94972)
# zbt14_human ZBTB14 = zbt14_human ZBTB14 (UniProt O43829)
# cntrb_human CNTROB = cntrb_human CNTROB (UniProt Q8N137)
# CCDC43 = CCDC43 (UniProt Q86WV7)
# tbcd1_human TBC1D1 = tbcd1_human TBC1D1 (UniProt Q86TI0)
# mgst2_human MGST2 = mgst2_human MGST2 (UniProt Q99735)
# car10_human CARD10 = car10_human CARD10 (UniProt Q9BWT7)
# kank2_human KANK2 = kank2_human KANK2 (UniProt Q63ZY3)
# sft2a_human SFT2D1 = sft2a_human SFT2D1 (UniProt Q8WV19)
# trbp2_human TARBP2 = trbp2_human TARBP2 (UniProt Q15633)
# thap1_human THAP1 = thap1_human THAP1 (UniProt Q9NVV9)
# syph_human SYP = syph_human SYP (UniProt P08247)
# Sequence of syph_human SYP (P08247 whole entry): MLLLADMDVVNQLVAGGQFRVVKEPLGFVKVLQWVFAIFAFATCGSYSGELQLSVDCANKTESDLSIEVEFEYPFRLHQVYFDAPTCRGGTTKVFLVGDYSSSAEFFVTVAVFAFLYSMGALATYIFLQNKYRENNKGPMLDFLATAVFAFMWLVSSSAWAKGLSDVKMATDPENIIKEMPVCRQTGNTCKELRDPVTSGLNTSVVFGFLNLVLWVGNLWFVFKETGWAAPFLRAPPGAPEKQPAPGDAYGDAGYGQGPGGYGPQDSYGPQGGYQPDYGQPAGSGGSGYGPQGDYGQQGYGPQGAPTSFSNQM
# Sequence of pnma5_human PNMA5 (Q96PV4 whole entry): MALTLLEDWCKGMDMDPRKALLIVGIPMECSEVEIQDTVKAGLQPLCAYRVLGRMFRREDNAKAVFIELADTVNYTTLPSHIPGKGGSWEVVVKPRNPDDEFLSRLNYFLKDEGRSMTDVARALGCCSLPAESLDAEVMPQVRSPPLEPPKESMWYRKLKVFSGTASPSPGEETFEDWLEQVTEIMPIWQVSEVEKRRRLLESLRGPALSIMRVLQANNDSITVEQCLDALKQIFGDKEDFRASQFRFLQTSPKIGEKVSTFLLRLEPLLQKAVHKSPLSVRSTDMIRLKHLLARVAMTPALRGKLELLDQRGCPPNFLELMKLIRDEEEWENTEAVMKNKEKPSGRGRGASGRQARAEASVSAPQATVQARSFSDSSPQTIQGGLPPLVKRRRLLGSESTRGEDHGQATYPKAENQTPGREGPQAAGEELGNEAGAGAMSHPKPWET
# Sequence of coha1_human COL17A1 (Q9UMD9 whole entry): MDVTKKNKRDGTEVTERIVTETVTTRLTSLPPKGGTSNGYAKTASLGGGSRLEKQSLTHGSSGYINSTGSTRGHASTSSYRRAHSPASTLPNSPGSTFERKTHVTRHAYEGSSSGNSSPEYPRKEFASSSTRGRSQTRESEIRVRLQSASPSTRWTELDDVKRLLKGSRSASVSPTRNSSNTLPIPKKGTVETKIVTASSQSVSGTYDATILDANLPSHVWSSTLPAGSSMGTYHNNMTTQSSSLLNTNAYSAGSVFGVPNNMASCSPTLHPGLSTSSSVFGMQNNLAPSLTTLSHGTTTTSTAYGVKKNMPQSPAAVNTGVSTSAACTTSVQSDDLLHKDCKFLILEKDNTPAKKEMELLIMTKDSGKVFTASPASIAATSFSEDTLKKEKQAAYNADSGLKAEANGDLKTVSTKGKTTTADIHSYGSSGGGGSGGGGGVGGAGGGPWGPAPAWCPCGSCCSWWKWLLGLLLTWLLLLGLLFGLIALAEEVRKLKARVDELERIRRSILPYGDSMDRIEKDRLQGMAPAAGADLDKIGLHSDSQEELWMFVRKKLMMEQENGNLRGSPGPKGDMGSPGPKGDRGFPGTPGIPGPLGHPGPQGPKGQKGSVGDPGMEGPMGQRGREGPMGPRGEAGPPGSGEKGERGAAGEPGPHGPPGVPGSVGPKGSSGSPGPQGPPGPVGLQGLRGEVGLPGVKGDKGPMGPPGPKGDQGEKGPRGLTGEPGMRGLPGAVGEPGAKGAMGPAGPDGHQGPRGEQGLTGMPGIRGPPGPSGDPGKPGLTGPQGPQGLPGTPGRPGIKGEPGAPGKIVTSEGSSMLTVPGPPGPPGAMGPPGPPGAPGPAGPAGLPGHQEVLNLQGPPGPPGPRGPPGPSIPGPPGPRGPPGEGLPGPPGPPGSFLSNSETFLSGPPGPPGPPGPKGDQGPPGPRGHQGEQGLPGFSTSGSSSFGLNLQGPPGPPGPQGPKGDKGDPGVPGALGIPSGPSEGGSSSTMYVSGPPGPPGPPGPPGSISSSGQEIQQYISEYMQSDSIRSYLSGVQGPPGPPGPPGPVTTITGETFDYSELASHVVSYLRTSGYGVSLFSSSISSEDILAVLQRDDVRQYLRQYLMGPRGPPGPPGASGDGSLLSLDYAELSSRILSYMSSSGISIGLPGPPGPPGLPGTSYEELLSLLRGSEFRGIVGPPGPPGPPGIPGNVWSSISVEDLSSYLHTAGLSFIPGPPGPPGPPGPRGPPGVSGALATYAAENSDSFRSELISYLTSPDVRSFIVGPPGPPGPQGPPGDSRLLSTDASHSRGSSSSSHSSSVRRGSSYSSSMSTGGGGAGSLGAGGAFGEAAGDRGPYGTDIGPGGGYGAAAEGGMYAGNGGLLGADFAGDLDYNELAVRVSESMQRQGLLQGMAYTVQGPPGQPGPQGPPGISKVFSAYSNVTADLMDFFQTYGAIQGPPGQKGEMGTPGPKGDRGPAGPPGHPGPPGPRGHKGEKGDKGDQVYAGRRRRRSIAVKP
# Sequence of ppip1_human PSTPIP1 (O43586 whole entry): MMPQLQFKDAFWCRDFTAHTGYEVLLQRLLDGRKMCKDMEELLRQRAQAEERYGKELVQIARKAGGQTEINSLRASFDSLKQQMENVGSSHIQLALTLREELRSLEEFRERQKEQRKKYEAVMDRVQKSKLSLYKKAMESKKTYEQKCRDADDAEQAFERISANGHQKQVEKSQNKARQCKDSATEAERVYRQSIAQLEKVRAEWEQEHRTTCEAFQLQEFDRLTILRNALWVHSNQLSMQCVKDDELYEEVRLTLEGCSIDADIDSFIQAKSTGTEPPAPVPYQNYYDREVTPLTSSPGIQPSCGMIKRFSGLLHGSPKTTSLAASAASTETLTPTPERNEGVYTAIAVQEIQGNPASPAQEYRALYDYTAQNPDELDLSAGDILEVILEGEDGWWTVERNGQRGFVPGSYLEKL
# Sequence of pick1_human PICK1 (Q9NRD5 whole entry): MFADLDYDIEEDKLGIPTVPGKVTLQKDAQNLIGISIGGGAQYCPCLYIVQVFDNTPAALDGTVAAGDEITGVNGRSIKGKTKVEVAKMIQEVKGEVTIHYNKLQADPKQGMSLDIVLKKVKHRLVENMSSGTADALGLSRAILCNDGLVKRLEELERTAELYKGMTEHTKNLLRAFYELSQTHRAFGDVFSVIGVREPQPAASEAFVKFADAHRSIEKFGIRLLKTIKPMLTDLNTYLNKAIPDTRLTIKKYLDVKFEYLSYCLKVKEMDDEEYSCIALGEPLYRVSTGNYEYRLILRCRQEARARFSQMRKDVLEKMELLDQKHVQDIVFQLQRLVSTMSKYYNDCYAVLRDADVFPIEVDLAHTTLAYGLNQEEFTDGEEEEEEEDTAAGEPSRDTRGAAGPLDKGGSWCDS
# Sequence of xrcc4_human XRCC4 (Q13426 whole entry): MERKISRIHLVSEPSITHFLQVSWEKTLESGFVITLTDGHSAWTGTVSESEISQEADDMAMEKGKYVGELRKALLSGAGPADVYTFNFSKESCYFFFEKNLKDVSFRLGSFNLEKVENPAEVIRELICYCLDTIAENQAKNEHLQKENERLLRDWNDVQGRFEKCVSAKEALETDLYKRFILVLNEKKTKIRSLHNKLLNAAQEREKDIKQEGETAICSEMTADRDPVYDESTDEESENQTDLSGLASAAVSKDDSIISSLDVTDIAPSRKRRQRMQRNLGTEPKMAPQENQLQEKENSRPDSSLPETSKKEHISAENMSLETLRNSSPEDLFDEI
# Sequence of rprm_human RPRM (Q9NS64 whole entry): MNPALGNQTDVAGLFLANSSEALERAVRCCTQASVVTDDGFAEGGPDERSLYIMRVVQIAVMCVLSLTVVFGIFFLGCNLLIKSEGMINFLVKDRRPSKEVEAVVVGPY
# Sequence of flowr_human CACFD1 (Q9UGQ2 whole entry): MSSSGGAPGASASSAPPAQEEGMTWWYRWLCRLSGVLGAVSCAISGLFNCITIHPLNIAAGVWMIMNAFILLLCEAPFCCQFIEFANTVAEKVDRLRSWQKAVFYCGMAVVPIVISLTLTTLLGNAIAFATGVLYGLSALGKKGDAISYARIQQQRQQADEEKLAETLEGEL
# Sequence of mgst2_human MGST2 (Q99735 whole entry): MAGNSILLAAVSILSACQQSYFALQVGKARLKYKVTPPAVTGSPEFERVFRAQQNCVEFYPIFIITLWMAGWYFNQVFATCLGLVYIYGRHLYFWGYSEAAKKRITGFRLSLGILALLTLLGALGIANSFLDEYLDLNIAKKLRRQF
substance,measurement,setting,value
"BAG family molecular chaperone regulator 3 (Homo sapiens), O95817 L462P",effect of a mutation on the interaction,noto_human NOTO,with no effect
same,effect of a mutation on the interaction,"EYA2, O00167-2",with no effect
same,effect of a mutation on the interaction,ptn21_human PTPN21,with no effect
same,effect of a mutation on the interaction,leng8_human LENG8,disrupting interaction strength
same,effect of a mutation on the interaction,tri27_human TRIM27,with no effect
same,effect of a mutation on the interaction,trib3_human TRIB3,disrupting interaction strength
same,effect of a mutation on the interaction,vp37b_human VPS37B,with no effect
same,effect of a mutation on the interaction,pihd2_human PIH1D2,with no effect
same,effect of a mutation on the interaction,"SIAH1, Q8IUQ4-2",disrupting interaction strength
same,effect of a mutation on the interaction,magd1_human MAGED1,with no effect
same,effect of a mutation on the interaction,hspb7_human HSPB7,with no effect
same,effect of a mutation on the interaction,arrd3_human ARRDC3,with no effect
same,effect of a mutation on the interaction,prdm6_human PRDM6,with no effect
same,effect of a mutation on the interaction,rm38_human MRPL38,disrupting interaction strength
same,effect of a mutation on the interaction,pa2gx_human PLA2G10,with no effect
same,effect of a mutation on the interaction,pdli7_human PDLIM7,with no effect
same,effect of a mutation on the interaction,wbp2_human WBP2,with no effect
same,effect of a mutation on the interaction,fx4l1_human FOXD4L1,with no effect
same,effect of a mutation on the interaction,prr34_human PRR34,with no effect
same,effect of a mutation on the interaction,cytm1_human CYSTM1,with no effect
same,effect of a mutation on the interaction,hspb8_human HSPB8,with no effect
same,effect of a mutation on the interaction,"RUNX1, Q01196-8",with no effect
same,effect of a mutation on the interaction,mdfi_human MDFI,with no effect
same,effect of a mutation on the interaction,dazp2_human DAZAP2,with no effect
same,effect of a mutation on the interaction,"GLIS3, Q8NEA6-2",with no effect
same,effect of a mutation on the interaction,dtx3_human DTX3,with no effect
same,effect of a mutation on the interaction,"NR1H3, Q13133-3",with no effect
same,effect of a mutation on the interaction,ctds1_human CTDSP1,disrupting interaction strength
same,effect of a mutation on the interaction,tm174_human TMEM174,disrupting interaction strength
same,effect of a mutation on the interaction,egr4_human EGR4,with no effect
"Bifunctional polynucleotide phosphatase/kinase (Homo sapiens), Q96T60 P20S",effect of a mutation on the interaction,coha1_human COL17A1,with no effect
same,effect of a mutation on the interaction,ppip1_human PSTPIP1,with no effect
same,effect of a mutation on the interaction,msd4_human MSANTD4,with no effect
same,effect of a mutation on the interaction,zn639_human ZNF639,with no effect
same,effect of a mutation on the interaction,klh12_human KLHL12,with no effect
same,effect of a mutation on the interaction,snx2_human SNX2,with no effect
same,effect of a mutation on the interaction,sp4_human SP4,with no effect
same,effect of a mutation on the interaction,fads6_human FADS6,with no effect
same,effect of a mutation on the interaction,pnma5_human PNMA5,with no effect
same,effect of a mutation on the interaction,"CCDC14, Q49A88-3",with no effect
same,effect of a mutation on the interaction,pick1_human PICK1,with no effect
same,effect of a mutation on the interaction,"CAMK2B, Q13554-3",with no effect
same,effect of a mutation on the interaction,sng3_human SYNGR3,with no effect
same,effect of a mutation on the interaction,"TMEM239, Q8WW34-2",with no effect
same,effect of a mutation on the interaction,xrcc4_human XRCC4,with no effect
same,effect of a mutation on the interaction,"SYNGR1, O43759-2",with no effect
same,effect of a mutation on the interaction,tnip1_human TNIP1,with no effect
same,effect of a mutation on the interaction,rprm_human RPRM,with no effect
same,effect of a mutation on the interaction,flowr_human CACFD1,with no effect
same,effect of a mutation on the interaction,"IKZF1, Q13422-7",with no effect
same,effect of a mutation on the interaction,crcm_human MCC,with no effect
same,effect of a mutation on the interaction,tri37_human TRIM37,with no effect
same,effect of a mutation on the interaction,zbt14_human ZBTB14,with no effect
same,effect of a mutation on the interaction,cntrb_human CNTROB,with no effect
same,effect of a mutation on the interaction,CCDC43,with no effect
same,effect of a mutation on the interaction,tbcd1_human TBC1D1,with no effect
same,effect of a mutation on the interaction,mgst2_human MGST2,with no effect
same,effect of a mutation on the interaction,car10_human CARD10,with no effect
same,effect of a mutation on the interaction,kank2_human KANK2,with no effect
same,effect of a mutation on the interaction,sft2a_human SFT2D1,with no effect
same,effect of a mutation on the interaction,trbp2_human TARBP2,with no effect
same,effect of a mutation on the interaction,thap1_human THAP1,with no effect
same,effect of a mutation on the interaction,syph_human SYP,with no effect
"Bifunctional polynucleotide phosphatase/kinase (Homo sapiens), Q96T60 E326K",effect of a mutation on the interaction,coha1_human COL17A1,disrupting interaction strength
same,effect of a mutation on the interaction,ppip1_human PSTPIP1,with no effect
same,effect of a mutation on the interaction,msd4_human MSANTD4,disrupting interaction strength
same,effect of a mutation on the interaction,zn639_human ZNF639,with no effect
same,effect of a mutation on the interaction,klh12_human KLHL12,disrupting interaction strength
same,effect of a mutation on the interaction,snx2_human SNX2,with no effect
same,effect of a mutation on the interaction,sp4_human SP4,with no effect
same,effect of a mutation on the interaction,fads6_human FADS6,with no effect
same,effect of a mutation on the interaction,pnma5_human PNMA5,disrupting interaction strength
same,effect of a mutation on the interaction,"CCDC14, Q49A88-3",disrupting interaction strength
same,effect of a mutation on the interaction,pick1_human PICK1,disrupting interaction strength
same,effect of a mutation on the interaction,"CAMK2B, Q13554-3",disrupting interaction strength
same,effect of a mutation on the interaction,sng3_human SYNGR3,with no effect
same,effect of a mutation on the interaction,"TMEM239, Q8WW34-2",disrupting interaction strength
same,effect of a mutation on the interaction,xrcc4_human XRCC4,with no effect
same,effect of a mutation on the interaction,"SYNGR1, O43759-2",disrupting interaction strength
same,effect of a mutation on the interaction,tnip1_human TNIP1,with no effect
same,effect of a mutation on the interaction,rprm_human RPRM,disrupting interaction strength
same,effect of a mutation on the interaction,flowr_human CACFD1,disrupting interaction strength
same,effect of a mutation on the interaction,"IKZF1, Q13422-7",with no effect
same,effect of a mutation on the interaction,crcm_human MCC,disrupting interaction strength
same,effect of a mutation on the interaction,tri37_human TRIM37,with no effect
same,effect of a mutation on the interaction,zbt14_human ZBTB14,with no effect
same,effect of a mutation on the interaction,cntrb_human CNTROB,with no effect
same,effect of a mutation on the interaction,CCDC43,disrupting interaction strength
same,effect of a mutation on the interaction,tbcd1_human TBC1D1,with no effect
same,effect of a mutation on the interaction,mgst2_human MGST2,with no effect
same,effect of a mutation on the interaction,car10_human CARD10,disrupting interaction strength
same,effect of a mutation on the interaction,kank2_human KANK2,disrupting interaction strength
same,effect of a mutation on the interaction,sft2a_human SFT2D1,disrupting interaction strength
same,effect of a mutation on the interaction,trbp2_human TARBP2,disrupting interaction strength
same,effect of a mutation on the interaction,thap1_human THAP1,disrupting interaction strength
same,effect of a mutation on the interaction,syph_human SYP,with no effect

# — IntAct's records for PubMed 32296183
